The values that follow come from patent publication US20130129707A1, “ANTIMICROBIAL ACTIVITY ENHANCING AGENT” (priority 2010, published 2013).

Type in all cases: cell-based
The test system of test [1] is Escherichia coli K-12 strain (NBRC 3301). The test can be described thus: Antimicrobial activity enhancement test (colony count, CFU). Conditions: culture 17 hours. As to the method:
In the antimicrobial activity enhancement test, antimicrobial activity of a sample obtained by mixing the antimicrobial activity enhancing agent of the present invention with lactoferrin or a lactoferrin hydrolysate was measured. As a control, antimicrobial activity of a sample containing only lactoferrin or a lactoferrin hydrolysate was also measured.
By using 1% Bacto peptone medium, Escherichia coli K-12 strain was inoculated into the medium contained in a polystyrene tube with a 5 ml capacity, and precultured in an incubator at 37° C. for 6 hours to obtain a cell suspension for the test. The precultured Escherichia coli was added to a 96-well plate at a cell density of 10^6 cells/mL together with each of the aforementioned samples, and cultured at 37° C. for a predetermined time. After the culture for the predetermined time, the culture medium containing Escherichia coli was serially diluted with 0.85% physiological saline, and plated on an agar medium, and culture was performed at 37° C. for a predetermined time. Then, number of colonies (colony forming units:CFU) was measured.
Antimicrobial activity of each sample was evaluated on the basis of the value of CFU. Degree of enhancement of the antimicrobial activity was calculated by comparison of the numbers of Escherichia coli (CFU) that remained after the test. For example, if CFU of Sample 1 is 100, and CFU of Sample 2 is 10 after the test, the antimicrobial activity of Sample 2 can be determined to be 10 times that of Sample 1. […]
By using 1% Bacto peptone medium (Becton Dickinson), the Escherichia coli K-12 strain (NBRC 3301) was inoculated to the medium contained in a polystyrene tube with a 5 ml capacity at a density of 10^6 CFU/mL, and precultured in an incubator at 37° C. for 6 hours to obtain a cell suspension for the test.
The cell suspension for the test was added to a 96-well plate at a cell density of 10^6 CFU/mL together with each of the aforementioned samples, and culture was performed at 37° C. for 17 hours.
After the culture for 17 hours, the culture medium containing Escherichia coli was serially diluted with 0.85% physiological saline, and plated on an agar medium (Rapid Media RM-SPC, Morinaga Milk Industry), and then culture was performed at 37° C. for 16 hours. Then, number of the formed colonies (CFU: Colony Forming Unit) was measured to evaluate the antimicrobial activity of each sample.

For test [2], the system named is Staphylococcus aureus JCM 2151. The test can be described thus: Minimum inhibitory concentration (MIC), absorbance at 630 nm. Conditions: Test Example 6; MIC as lactoferrin concentration; 17 hours, 37° C. On the procedure:
(§1) By using 1% Bacto peptone medium (Becton Dickinson), each of Escherichia coli 0111, Cronobacter sakazaki ATCC 12868, Salmonella enteritidis IID 604, Klebsiella pneumoniae JCM 1662T, Pseudomonas aeruginosa MMI 603, Staphylococcus aureus JCM 2151 and Staphylococcus epidermidis JCM 2414T was inoculated to the medium contained in a polystyrene tube with a 5 ml capacity at a density of 10^6 cells/mL, and precultured in an incubator at 37° C. for 6 hours to obtain a cell suspension for the test.
(§2) Each of the cell suspensions for the test was added to a 96-well plate at a cell density of 10^6 cells/mL together with each of the aforementioned samples, and culture was performed at 37° C. for 17 hours.
(§3) After the culture for 17 hours, absorbance of the medium was measured at 630 nm using a microplate reader (Corona Electric). In addition, each bacterium was cultured only with the medium as a control, besides the culture using Samples 16 to 30.
(§4) By using 1% Bacto peptone medium (Becton Dickinson), each of Escherichia coli 0111, Cronobacter sakazaki ATCC 12868, Klebsiella pneumoniae JCM 1662T, Pseudomonas aeruginosa MMI 603, and Staphylococcus aureus JCM 2151 was inoculated to the medium contained in a polystyrene tube with a 5 ml capacity at a density of 10^6 cells/mL, and precultured in an incubator at 37° C. for 6 hours to obtain a cell suspension for the test. In a similar manner, by using the PYG medium (1% Bacto peptone, 0.05% yeast extract (Becton Dickinson), 1% glucose (Wako Pure Chemical Industries)), Streptococcus mutans JCM 5705T was inoculated to the medium contained in a polystyrene tube with a 5 ml capacity at a density of 10^6 cells/mL, and precultured in an incubator at 37° C. for 6 hours to obtain a cell suspension for the test. Further, by using the Sabouraud medium (1% Bacto peptone, 2% glucose), Candida albicans TIMM1768 was inoculated to the medium contained in a polystyrene tube with a 5 ml capacity at a density of 10^6 cells/mL, and precultured in an incubator at 37° C. for 6 hours to obtain a cell suspension for the test.
(§5) After the culture for 17 hours, absorbance of the medium was measured at 630 nm using a microplate reader (Corona Electric). In addition, each bacterium was cultured only with the medium as a control, besides the culture using Samples 31 to 41.

In test [3] the test system is Pseudomonas aeruginosa MMI 603. Described as above. Conditions: Test Example 6; MIC as lactoferrin concentration; 17 hours, 37° C. As to the method: as §1, §2, §3, §4, §5
Test [4] concerns Cronobacter sakazaki ATCC 12868. The test is described as above. The following applies: Test Example 6; MIC as lactoferrin concentration; 17 hours, 37° C. As to the method:
as §1, §2, §3, §4, §5

The test system of another test is Escherichia coli O111. Described as above. The following applies: Test Example 6; MIC as lactoferrin concentration; 17 hours, 37° C. As to the method:
as §1, §2, §3, §4, §5

The test system of test [5] is Klebsiella pneumoniae JCM 1662T. The test is described as above. Conditions: Test Example 6; MIC as lactoferrin concentration; 17 hours, 37° C. On the procedure: as §1, §2, §3, §4, §5
Test [6] concerns Streptococcus mutans JCM 5705T. Described as above. The following applies: Test Example 6; MIC as lactoferrin concentration; PYG medium; 17 hours, 37° C. As to the method: (§6) In a similar manner, by using the PYG medium (1% Bacto peptone, 0.05% yeast extract (Becton Dickinson), 1% glucose (Wako Pure Chemical Industries)), Streptococcus mutans JCM 5705T was inoculated to the medium contained in a polystyrene tube with a 5 ml capacity at a density of 10^6 cells/mL, and precultured in an incubator at 37° C. for 6 hours to obtain a cell suspension for the test. Further, by using the Sabouraud medium (1% Bacto peptone, 2% glucose), Candida albicans TIMM1768 was inoculated to the medium contained in a polystyrene tube with a 5 ml capacity at a density of 10^6 cells/mL, and precultured in an incubator at 37° C. for 6 hours to obtain a cell suspension for the test.
as §2
(§7) After the culture for 17 hours, absorbance of the medium was measured at 630 nm using a microplate reader (Corona Electric). In addition, each bacterium was cultured only with the medium as a control, besides the culture using Samples 16 to 30. […]
(§8) After the culture for 17 hours, absorbance of the medium was measured at 630 nm using a microplate reader (Corona Electric). […]

Test [7] relates to Candida albicans TIMM1768. The test is described as above. Conditions: Test Example 6; MIC as lactoferrin concentration; Sabouraud medium; 17 hours, 37° C. On the procedure: as §6, §2, §7, §8
The test system of test [8] is Salmonella enteritidis IID 604. The description is as above. Conditions: Test Example 6; MIC as lactoferrin concentration; 17 hours, 37° C. On the procedure: as §1, §2, §3
In test [9] the test system is Staphylococcus epidermidis JCM 2414T. Described as above. The following applies: Test Example 6; MIC as lactoferrin concentration; 17 hours, 37° C. As to the method: as §1, §2, §3

B1: Sample 14: Angiogenin-1 (32 μg/mL), bovine, about 15 kDa, separated by gel filtration HPLC in Example 5 (SEQ ID NO: 4) (protein, listed as Bos taurus)
chain: AQDDYRYIHFLTQHYDAKPKGRNDEYCFNMMKNRRLTRPCKDRNTFIHGNKNDIKAICEDRNGQPYRGDLRISKSEFQITICKHKGGSSRPPCRYGATEDSRVIVVGCENGLPVHFDESFITPRH
For B1, in test [1] (Test Example 5), the “Change of Log10 CFU relative to control” value amounted to 0.160, the “Survival rate based on control” value came to 144.654% and the “antimicrobial activity (in words)” value was “do not have antimicrobial activity”.

B2: LF: bovine lactoferrin (Morinaga Milk Industry) diluted with deionized water; 2 mg/mL in Samples 1 and 11 (protein, UniProt P24627 20-708, looked up)
Lactotransferrin: APRKNVRWCTISQPEWFKCRRWQWRMKKLGAPSITCVRRAFALECIRAIAEKKADAVTLDGGMVFEAGRDPYKLRPVAAEIYGTKESPQTHYYAVAVVKKGSNFQLDQLQGRKSCHTGLGRSAGWIIPMGILRPYLSWTESLEPLQGAVAKFFSASCVPCIDRQAYPNLCQLCKGEGENQCACSSREPYFGYSGAFKCLQDGAGDVAFVKETTVFENLPEKADRDQYELLCLNNSRAPVDAFKECHLAQVPSHAVVARSVDGKEDLIWKLLSKAQEKFGKNKSRSFQLFGSPPGQRDLLFKDSALGFLRIPSKVDSALYLGSRYLTTLKNLRETAEEVKARYTRVVWCAVGPEEQKKCQQWSQQSGQNVTCATASTTDDCIVLVLKGEADALNLDGGYIYTAGKCGLVPVLAENRKSSKHSSLDCVLRPTEGYLAVAVVKKANEGLTWNSLKDKKSCHTAVDRTAGWNIPMGLIVNQTGSCAFDEFFSQSCAPGADPKSRLCALCAGDDQGLDKCVPNSKEKYYGYTGAFRCLAEDVGDVAFVKNDTVWENTNGESTADWAKNLNREDFRLLCLDGTRKPVTEAQSCHLAVAPNHAVVSRSDRAAHVKQVLLHQQALFGKNGKNCPDKFCLFKSETKNLLFNDNTECLAKLGGRPTYEEYLGTEYVTAIANLKKCSTSPLLEACAFLTR
Take B2: the “Change of Log10 CFU relative to control” value is −2.472 in [1] (Test Example 2) and −2.657 in [1] (Test Example 5). Besides, the “Survival rate based on control” value in [1] (Test Example 2) is listed as 0.337%; in test [1] (Test Example 5), 0.220%. Further, the MIC in test [2] is 500 µg/mL; in [3] it was 8000 µg/mL; in test [4], 8000 µg/mL; against Escherichia coli O111 it was 2000 µg/mL; in test [5], 8000 µg/mL; in test [6], greater than 8000 µg/mL. For the same molecule, the MIC in [7] was found to be 1000 µg/mL; in test [8] it was 4000 µg/mL; in [9], 1000 µg/mL.

B3: angiogenin-2: bovine angiogenin-2, about 17 kDa component of peak α in Example 5 (SEQ ID NO: 7) (protein, listed as Bos taurus)
chain: QNDAYRGFLRKHYDPSPTGHDDRYCNTMMERRNMTRPCKDTNTFIHGNSDDIRAVCDDRNGEPYRNGLRRSRSPFQVTTCRHRGGSPRPPCRYRAFRANRVIVIRCRDGFPIHLEENFIPPRP
Regarding B3, the “antimicrobial activity (in words)” value in [1] (Test Example 5) is “do not have antimicrobial activity”.

As usually defined, the MIC is the least concentration at which growth counts as inhibited.
